This experiment addresses Fc receptor (FcR) on antigen presenting cells. Put plainly: cell-based or functional assay.

On to “Ig-W (from UniProt P01867 1-335) (antibody)”, for which the inhibition of IL-2 production in Ig-PLP1 mediated activation of 4E3 T cells was determined as 50%.

These data come from US20090280132A1.
